Results on three molecules are retold here after patent publication US20030087315A1 (MCP HAHNEMANN UNIVERSITY, published 2003).

No end group written: not given here. *: point of attachment. Biotin = O=C1N[C@H]2[C@H](CS[C@H]2CCCCC(=O)*)N1

Experiment [1] concerns the target T1, α2(I) chain of type I collagen (mouse, UniProt Q01149 97-1110, limits assumed).
T1 construct: Denatured chain on a nitrocellulose filter; pepsin-treated collagen
Description: filter binding assay, electroblotted chains, avidin-peroxidase. From the text:
(§1) The α1(I) and α2(I) chains of type I collagen or CNBr fragments of the chains were separated by polyacrylamide gel electrophoresis and electroblotted onto filters. The filters were then hybridized with a biotinylated telopeptide followed by assay of the washed filter with streptavidin-horseradish peroxidase. “CNBr+” indicates α1(I) or α2(I) chains which were digested with cyanogen bromide.
Type I collagen extracted with 0.5 M acetic acid from mouse skin was digested with pepsin, and the a chains separated by gel electrophoresis in SDS. To generate CNBr peptides, gel slices containing α1(1) and α2(I) chains were placed into tubes and a chains were digested with 10 mg/ml or 200 mg/ml CNBr in 70% formic acid at room temperature overnight. The gel slices were equilibrated with 0.05 mM Tris-HCl buffer (pH 6.8) over 3 hours. Gel pieces containing CNBr peptides derived from individual collagen a chains were transferred into the wells of the second gel prepared with a 6% polyacrylamide stacking gel and 12% polyacrylamide separating gel with 0.5 M urea. After electrophoresis, the gel was electroblotted overnight at 4° C. onto a nitrocellulose filter (Millipore). To study binding of telopeptides to collagen fragments, the method described by Fujisawa et al. (Fujisawa et al., 1994, Calcif. Tiss. Int. 56:140-144) was used. The filters were blocked with 1% bovine serum albumin (Sigma) and then incubated overnight with 20 ml of 5 mg/ml peptide that was substituted at the N-terminus with biotin (synthesized for us by American Peptide Company, Inc.). The filter was washed three times with Tris-buffered saline containing 0.02% Tween (TBST) and incubated 30 min with a 1:30,000 dilution of horseradish peroxidase conjugated with avidin (Sigma). The bands were detected by chemiluminescence (ECL; Amersham) after exposure to an X-ray film for 3 to 10 min.

The target of experiment [2] is T2, α1(I) chain of type I collagen (mouse, UniProt P11087 168-1181, limits assumed).
T2 construct: Denatured chain on a nitrocellulose filter; pepsin-treated collagen; also called α1 chain
The experiment can be described thus: electroblot assay, FIG. 5B.
Excerpt: as §1
(§2) Type I collagen extracted with 0.5 M acetic acid from mouse skin was digested with pepsin, and the a chains separated by gel electrophoresis in SDS. To generate CNBr peptides, gel slices containing α1(1) and α2(I) chains were placed into tubes and a chains were digested with 10 mg/ml or 200 mg/ml CNBr in 70% formic acid at room temperature overnight. The gel slices were equilibrated with 0.05 mM Tris-HCl buffer (pH 6.8) over 3 hours. Gel pieces containing CNBr peptides derived from individual collagen a chains were transferred into the wells of the second gel prepared with a 6% polyacrylamide stacking gel and 12% polyacrylamide separating gel with 0.5 M urea. After electrophoresis, the gel was electroblotted overnight at 4° C. onto a nitrocellulose filter (Millipore). […] The bands were detected by chemiluminescence (ECL; Amersham) after exposure to an X-ray film for 3 to 10 min.

Experiment [3] deals with T2, α1(I) chain of type I collagen. Description: electroblot assay, FIG. 5C.
Excerpt: as §1, §2

T1 sequence (Q01149 97-1110 limits assumed): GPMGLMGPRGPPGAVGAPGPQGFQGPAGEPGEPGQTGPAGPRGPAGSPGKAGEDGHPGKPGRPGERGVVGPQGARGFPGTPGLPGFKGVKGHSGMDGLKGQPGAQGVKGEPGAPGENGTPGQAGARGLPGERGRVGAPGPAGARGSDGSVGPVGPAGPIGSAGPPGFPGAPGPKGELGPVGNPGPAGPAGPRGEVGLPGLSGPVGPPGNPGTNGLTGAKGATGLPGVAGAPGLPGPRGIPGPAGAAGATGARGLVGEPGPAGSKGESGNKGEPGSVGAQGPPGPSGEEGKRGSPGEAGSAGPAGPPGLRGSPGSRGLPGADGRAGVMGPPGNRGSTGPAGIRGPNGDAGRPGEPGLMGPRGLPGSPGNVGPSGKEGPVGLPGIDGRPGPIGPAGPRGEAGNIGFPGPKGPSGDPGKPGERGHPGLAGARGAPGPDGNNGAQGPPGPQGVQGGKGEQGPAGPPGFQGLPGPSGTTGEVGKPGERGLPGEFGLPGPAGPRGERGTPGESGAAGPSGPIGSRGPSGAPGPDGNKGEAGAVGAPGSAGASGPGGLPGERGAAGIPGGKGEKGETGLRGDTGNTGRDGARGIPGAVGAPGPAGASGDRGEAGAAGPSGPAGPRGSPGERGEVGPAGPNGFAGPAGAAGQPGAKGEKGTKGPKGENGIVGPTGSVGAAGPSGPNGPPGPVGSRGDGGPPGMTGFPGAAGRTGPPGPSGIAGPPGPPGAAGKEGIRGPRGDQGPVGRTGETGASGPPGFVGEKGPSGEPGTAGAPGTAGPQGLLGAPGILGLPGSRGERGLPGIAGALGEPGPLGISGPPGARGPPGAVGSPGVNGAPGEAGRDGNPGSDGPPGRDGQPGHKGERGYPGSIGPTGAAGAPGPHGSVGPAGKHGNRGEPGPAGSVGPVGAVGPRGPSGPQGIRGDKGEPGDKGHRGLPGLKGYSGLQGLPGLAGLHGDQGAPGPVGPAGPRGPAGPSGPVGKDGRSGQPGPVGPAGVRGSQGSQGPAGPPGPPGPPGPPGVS
T2 sequence (P11087 168-1181 limits assumed): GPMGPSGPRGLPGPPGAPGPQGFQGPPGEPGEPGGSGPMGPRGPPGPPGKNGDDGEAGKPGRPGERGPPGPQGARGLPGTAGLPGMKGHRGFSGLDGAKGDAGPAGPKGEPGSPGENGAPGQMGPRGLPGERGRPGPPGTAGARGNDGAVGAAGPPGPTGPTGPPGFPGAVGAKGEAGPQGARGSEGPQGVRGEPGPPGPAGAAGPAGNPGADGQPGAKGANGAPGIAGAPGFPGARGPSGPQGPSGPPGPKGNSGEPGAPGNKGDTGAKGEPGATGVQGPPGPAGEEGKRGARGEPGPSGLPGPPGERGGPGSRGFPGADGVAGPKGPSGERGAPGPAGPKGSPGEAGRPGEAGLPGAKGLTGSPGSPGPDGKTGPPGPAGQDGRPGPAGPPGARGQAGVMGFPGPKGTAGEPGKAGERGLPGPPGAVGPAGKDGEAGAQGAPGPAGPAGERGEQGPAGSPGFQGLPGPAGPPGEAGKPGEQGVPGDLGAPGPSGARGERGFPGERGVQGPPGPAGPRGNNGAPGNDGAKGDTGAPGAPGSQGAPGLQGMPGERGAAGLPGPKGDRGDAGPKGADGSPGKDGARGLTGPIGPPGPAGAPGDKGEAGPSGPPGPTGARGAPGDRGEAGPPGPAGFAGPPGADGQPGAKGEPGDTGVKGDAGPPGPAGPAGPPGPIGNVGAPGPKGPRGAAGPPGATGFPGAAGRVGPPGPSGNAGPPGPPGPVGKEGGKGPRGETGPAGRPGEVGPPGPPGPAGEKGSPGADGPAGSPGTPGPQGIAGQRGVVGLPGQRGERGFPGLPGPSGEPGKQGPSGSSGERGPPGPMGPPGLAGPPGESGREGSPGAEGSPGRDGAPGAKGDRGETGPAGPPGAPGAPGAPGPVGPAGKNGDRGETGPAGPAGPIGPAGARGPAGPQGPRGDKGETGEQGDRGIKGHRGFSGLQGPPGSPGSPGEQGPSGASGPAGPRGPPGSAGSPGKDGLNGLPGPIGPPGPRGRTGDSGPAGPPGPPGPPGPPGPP

In the case of Biotin-GGGYDFGYDGDFYRA (also called biotinylated F3) [biotinylated C-telopeptide of α2 chain of human type I collagen], the binding result in experiment [1] is “no binding (tested: 5 mg/ml peptide (so in the source))”; in experiment [2], “binds”.

B1: biotinylated N-telopeptide of the α1 chain of human type I collagen (peptide)
peptide: Biotin-QLSYGYDEKSTGGISVP
notes: also called biotinylated α1 N-telopeptide
On to B1, for which the figures for the binding result in experiment [3] and in experiment [1] were “binds” and “no binding (tested: 5 mg/ml peptide (so in the source))”, respectively.

B2: biotinylated N-telopeptide of α2 chain of human type I collagen (peptide, UniProt P08123 80-90, looked up)
peptide: Biotin-QYDGKGVGLGP
notes: domain: N-telopeptide; also called biotinylated α2 N-telopeptide
In the case of B2, the binding result in experiment [1] was “no binding (tested: 5 mg/ml peptide (so in the source))”.
